Experimental data from US20220177591A1 (TARGINTA, published 2022).

Biological target: T1, human integrin alpha10 on human cancer cell lines (BT549, PC-3, A549, MiaPaCa-2, PANC-1) (human, UniProt O75578 23-1167)
T1 construct: Endogenous protein on human cell lines; also called integrin alpha10 polypeptide; alpha10 subunit of integrin alpha10 beta1
T1 sequence: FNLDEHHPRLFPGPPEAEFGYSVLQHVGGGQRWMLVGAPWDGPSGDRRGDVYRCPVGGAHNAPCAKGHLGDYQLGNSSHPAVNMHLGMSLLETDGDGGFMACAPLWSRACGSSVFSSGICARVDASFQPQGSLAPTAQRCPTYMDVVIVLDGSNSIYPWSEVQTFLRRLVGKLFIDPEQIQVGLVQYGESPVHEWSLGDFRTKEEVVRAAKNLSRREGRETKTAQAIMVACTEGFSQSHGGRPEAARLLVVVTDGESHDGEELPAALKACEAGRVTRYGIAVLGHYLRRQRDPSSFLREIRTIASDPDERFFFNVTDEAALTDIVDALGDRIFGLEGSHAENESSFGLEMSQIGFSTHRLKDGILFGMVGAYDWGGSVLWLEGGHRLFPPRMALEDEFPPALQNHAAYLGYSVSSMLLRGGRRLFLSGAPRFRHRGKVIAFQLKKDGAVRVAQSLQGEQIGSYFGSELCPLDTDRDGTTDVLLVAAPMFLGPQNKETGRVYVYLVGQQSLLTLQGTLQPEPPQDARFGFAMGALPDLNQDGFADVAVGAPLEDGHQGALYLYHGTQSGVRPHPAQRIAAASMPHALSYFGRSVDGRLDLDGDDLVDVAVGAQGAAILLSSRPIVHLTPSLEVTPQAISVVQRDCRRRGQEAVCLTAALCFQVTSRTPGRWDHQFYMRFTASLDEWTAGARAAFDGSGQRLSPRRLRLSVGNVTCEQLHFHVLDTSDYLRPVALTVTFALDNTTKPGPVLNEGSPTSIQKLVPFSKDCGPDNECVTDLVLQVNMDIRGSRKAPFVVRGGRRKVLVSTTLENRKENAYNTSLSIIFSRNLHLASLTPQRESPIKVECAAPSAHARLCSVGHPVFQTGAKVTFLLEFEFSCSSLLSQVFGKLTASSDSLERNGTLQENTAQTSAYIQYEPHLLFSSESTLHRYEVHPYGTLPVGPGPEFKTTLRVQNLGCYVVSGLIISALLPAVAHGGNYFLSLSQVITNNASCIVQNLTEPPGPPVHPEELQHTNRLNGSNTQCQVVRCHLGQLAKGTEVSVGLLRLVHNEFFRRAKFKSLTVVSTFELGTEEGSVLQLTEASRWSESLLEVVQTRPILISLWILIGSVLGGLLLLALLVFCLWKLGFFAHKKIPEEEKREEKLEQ
Assay: flow cytometry competition on BT549 cells
Method: The binding competition assay of the antibody mouse monoclonal antibody mAbα10 and the human monoclonal antibody Th101 was performed in integrin alpha10 overexpressing C2C12α10 cells and triple-negative breast cancer BT549 cells. The cells were incubated with single or mixed antibodies at the indicated concentrations (μg/ml) for 30 min followed by two washed, and then stained with secondary antibodies for 30 min. Donkey anti-human Alexa 488 was used as a secondary antibody to the human monoclonal antibody Th101. Donkey anti-mouse Alexa 647 was used as a secondary antibody to the mouse monoclonal antibody mAbα10. The binding of the antibodies was analyzed by flow cytometry, wherein the fluorescence signal of the secondary antibodies were detected.

B1: human monoclonal anti-integrin alpha10 antibody Th101 (antibody, V domains shown)
VH: EVQLLESGGGLVQPGGSLRLSCAASGFTFSDYGMNWVRQAPGKGLEWVAVISYDGSNKYYADSVKGRFTISRDNSKNTLYLQMNSLRAEDTAVYYCARGGNWGVFDYWGQGTLVTVSS
VL: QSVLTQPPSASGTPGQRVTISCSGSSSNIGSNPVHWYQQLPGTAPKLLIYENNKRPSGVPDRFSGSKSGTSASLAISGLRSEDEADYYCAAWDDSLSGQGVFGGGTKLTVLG
notes: It is a human monoclonal antibody detected with an anti-human secondary; Its negative control Th301 is human IgG1 VH/Lambda
B1: binds.
